Experimental data taken from US20250002593A1 (INMAGENE PTE, published 2025).
Where two headings read alike, the source gives them in different places.

T1: Recombinant hIL-36R protein (Acrobio, Cat #IL2-H52H6) (human, UniProt Q9HB29 20-335)
T1 construct: Bought soluble protein; also called recombinant human IL-36R protein
T1 sequence: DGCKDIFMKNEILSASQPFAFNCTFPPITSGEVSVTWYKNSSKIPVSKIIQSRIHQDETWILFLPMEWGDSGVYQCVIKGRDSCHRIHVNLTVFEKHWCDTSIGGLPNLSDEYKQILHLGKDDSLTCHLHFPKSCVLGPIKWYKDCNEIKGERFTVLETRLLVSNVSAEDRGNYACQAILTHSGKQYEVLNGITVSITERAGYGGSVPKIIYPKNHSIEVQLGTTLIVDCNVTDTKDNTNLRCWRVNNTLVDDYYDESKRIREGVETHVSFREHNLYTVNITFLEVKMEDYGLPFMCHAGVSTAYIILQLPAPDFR

T2: membrane hIL-36R (human, UniProt Q9HB29 20-575)
T2 sequence: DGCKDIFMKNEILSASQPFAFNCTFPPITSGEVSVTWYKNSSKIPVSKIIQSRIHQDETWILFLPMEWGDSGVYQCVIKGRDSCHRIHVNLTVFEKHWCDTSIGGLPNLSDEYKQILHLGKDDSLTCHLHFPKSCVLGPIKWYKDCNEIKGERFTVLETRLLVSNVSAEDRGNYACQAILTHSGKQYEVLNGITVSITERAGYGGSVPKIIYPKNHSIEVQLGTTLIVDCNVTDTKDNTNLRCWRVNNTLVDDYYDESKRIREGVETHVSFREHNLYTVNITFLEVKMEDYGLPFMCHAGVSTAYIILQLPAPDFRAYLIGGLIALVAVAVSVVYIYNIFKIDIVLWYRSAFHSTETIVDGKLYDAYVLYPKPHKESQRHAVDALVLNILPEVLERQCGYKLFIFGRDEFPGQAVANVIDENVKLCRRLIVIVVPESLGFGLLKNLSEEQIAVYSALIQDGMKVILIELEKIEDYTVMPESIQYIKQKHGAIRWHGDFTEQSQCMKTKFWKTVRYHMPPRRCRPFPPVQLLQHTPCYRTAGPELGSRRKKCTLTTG

B1: 9H11 (antibody, V domains shown)
VH: QVQLQQSGPELVKPGASVKISCKASGYAFSHSWMNWVKQRPGKGLEWIGWIHLGDGDTYYNGKFKGKATLTADKSSSTAYMQLSSLTSEDSAVYFCARSDGNYVPYAMDYWGQGTSVTVSS
VL: DIVITQTTSSLSASLGDRVTISCRASQDISNYLSWYQQKPDGTVKLLIYYTSRLHSGVPSRFSGSGSGTDYSLTISSLEQEDIATYFCQQDSEHPWTFGGGTELDVR
notes: Mouse variable regions, recombinantly expressed
B2: 10D12 (antibody, V domains shown)
VH: QVQLQQPGTELVKPGASVKLSCKASGYTFTRYWMHWVRQRPGQGLEWIGNINPNIGRANYNEKFKNKATLTVDKSSSTAYMQLSSLTSEDSAVYYCARPGETTDYWGQGTTLTVSS
VL: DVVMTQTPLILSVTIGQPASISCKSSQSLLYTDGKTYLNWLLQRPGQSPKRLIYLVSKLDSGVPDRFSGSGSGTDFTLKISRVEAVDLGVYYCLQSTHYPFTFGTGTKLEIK
notes: as for B1
B3: 9C12 (antibody, V domains shown)
VH: EVQLQQSGPELVKPGASVKMSCKASGYTFTDYHMNWVKRSPGKSLEWIGRINPDYGDARYDQKFKGKATLTVDKSLSTAYMQLNRLTYEDSAVYYCARDGYYVFDYWGQGSTLTVSS
VL: DIVMTQAAFSNPVSLGTSASISCRSSKSLLHSDGITYLSWYLQRPGQSPQLLIYRMSNLVSGVPDRFSGSGSGTDFTLRISRVEAEDVGVYYCAQTLEFPLTFGAGTKLELK
notes: as for B1
B4: 5F7-hu-2 (antibody, V domains shown)
VH: QVQLQESGGGLVKPGGSLRLSCAASGFAFTDYYMNWIRQAPGKGLEWVSLIRNKAAGYTIYYADSVKGRFTISRDNAKSSLYLQMNSLRAEDTAVYYCVRDMTIYDGYYVDYALDYWGQGTLVTVSS
VL: EIVMTQSPATLSVSPGERATLSCRASQNINIWLSWYQQKPGQAPRLFIYKASNLHTGVPARFSGSGSGTEFTLTISSLQSEDFAVYYCLQSQSYPLTFGQGTKLEIK
notes: Humanized 5F7; also called humanized 5F7
B5: 10F6 (antibody, V domains shown)
VH: QVQLQQSGAELVKPGASVRLSCKASGYTFTEFTIHWVKQRSGQGLEWIGWFYPGSDFIKYNEKFKDKATLTADKSSNTVYMELLRLTSEDSAVYFCARHEDRLSDYSYEWYFDVWGAGTAVTVSS
VL: DIQMTQSPASLSASVGETVTITCRASENIDSYLAWYQQKQGKSPQLLVYGATLLADGVPSRFSGSGSGTQYSLKINSLQSEDVAEYFCQHYYSIPLTFGAGTKLELK
notes: as for B1
B6: 1A21 (antibody, V domains shown)
VH: EVQLQQSGPELVKPGDSVKISCKASGYSFTGYFMNWVMQSHGKSLEWIGRINPYNGDTFYNQKFKGKATLTVDKSSSTAHMELRSLTSEDSAVYYCAGLGHWYFDVWGTGTTVTVSS
VL: DIVMTQSTLSLPVSLGDQASISCRSSQSIVHSNGNTYLEWYLQKPGQSPKLLIYKVSNRFSGVPDRFSGSGSGTDFTLKISRVEAEDLGVYYCFQGSHVPWTFGGGTKLEIK
notes: as for B1
B7: 5F7-2a6 (antibody, human IgG4 S228P, kappa, V domains shown)
VH: EVQLVESGGGLVKPGGSLRLSCAASGFDFTDYYMNWVRQAPGKGLEWVALIRNKAAGYTIYYSAPVKGRFTISRDDSKSTLYLQMNSLKTEDTAVYYCVRDMTIYDGYYVDYALDYWGQGTLVTVSS
VL: DIVMTQSPSSVSASVGDRVTITCRASRNINIWLSWYQQKPGKAPKLFIYKASNLHTGVPSRFSGSGSGTDFTLTISSLQPEDFATYYCLQSQSYPLTFGQGTKLEIKR
B8: 5F7-2g10 (antibody, human IgG4 S228P, kappa, V domains shown)
VH: EVQLVESGGGLVKPGGSLRLSCAASGFAFTDYYLSWVRQAPGKGLEWVALIRNKAAGYTIYYSAPVKGRFTISRDDSKSTLYLQMNSLKTEDTAVYYCVRDMTIYDGYYVDYALDYWGQGTLVTVSS
VL: DIVMTQSPSSVSASVGDRVTITCRASRNINIWLSWYQQKPGKAPKLFIYKASNLHTGVPSRFSGSGSGTDFTLTISSLQPEDFATYYCLQSQSYPLTFGQGTKLEIKR
B9: 5F7-2a1 (antibody, human IgG4 S228P, kappa, V domains shown)
VH: EVQLVESGGGLVKPGGSLRLSCAASGFDFTDYYMHWVRQAPGKGLEWVALIRNKAAGYTIYYSAPVKGRFTISRDDSKSTLYLQMNSLKTEDTAVYYCVRDMTIYDGYYVDYALDYWGQGTLVTVSS
VL: DIVMTQSPSSVSASVGDRVTITCRASRNINIWLSWYQQKPGKAPKLFIYKASNLHTGVPSRFSGSGSGTDFTLTISSLQPEDFATYYCLQSQSYPLTFGQGTKLEIKR
B10: 5F7-2c4 (antibody, human IgG4 S228P, kappa, V domains shown)
VH: EVQLVESGGGLVKPGGSLRLSCAASGFAFTDYYLRWVRQAPGKGLEWVALIRNKAAGYTIYYSAPVKGRFTISRDDSKSTLYLQMNSLKTEDTAVYYCVRDMTIYDGYYVDYALDYWGQGTLVTVSS
VL: DIVMTQSPSSVSASVGDRVTITCRASRNINIWLSWYQQKPGKAPKLFIYKASNLHTGVPSRFSGSGSGTDFTLTISSLQPEDFATYYCLQSQSYPLTFGQGTKLEIKR
B11: 5F7-2d3 (antibody, human IgG4 S228P, kappa, V domains shown)
VH: EVQLVESGGGLVKPGGSLRLSCAASGFNFTDYYMNWVRQAPGKGLEWVALIRNKAAGYTIYYSAPVKGRFTISRDDSKSTLYLQMNSLKTEDTAVYYCVRDMTIYDGYYVDYALDYWGQGTLVTVSS
VL: DIVMTQSPSSVSASVGDRVTITCRASRNINIWLSWYQQKPGKAPKLFIYKASNLHTGVPSRFSGSGSGTDFTLTISSLQPEDFATYYCLQSQSYPLTFGQGTKLEIKR
B12: 5F7-hu-5 (antibody, V domains shown)
VH: EVQLVESGGGLVKPGGSLRLSCAASGFAFTDYYMNWVRQAPGKGLEWVALIRNKAAGYTIYYSAPVKGRFTISRDDSKSTLYLQMNSLKTEDTAVYYCVRDMTIYDGYYVDYALDYWGQGTLVTVSS
VL: DIVMTQSPSSVSASVGDRVTITCRASQNINIWLSWYQQKPGKAPKLFIYKASNLHTGVPSRFSGSGSGTDFTLTISSLQPEDFATYYCLQSQSYPLTFGQGTKLEIK
notes: as for B4
B13: 5F7-2h1 (antibody, human IgG4 S228P, kappa, V domains shown)
VH: EVQLVESGGGLVKPGGSLRLSCAASGYAFTDYYMNWVRQAPGKGLEWVALIRNKAAGYTIYYSAPVKGRFTISRDDSKSTLYLQMNSLKTEDTAVYYCVRDMTIYDGYYVDYALDYWGQGTLVTVSS
VL: DIVMTQSPSSVSASVGDRVTITCRASRNINIWLSWYQQKPGKAPKLFIYKASNLHTGVPSRFSGSGSGTDFTLTISSLQPEDFATYYCLQSQSYPLTFGQGTKLEIKR
B14: 1C11 (antibody, V domains shown)
VH: EVQVQQSGTELVKPGASVKLSCKASGYTFTNYWLHWVKQRPGQGLEWIGNINPSNGGTNYNEKFKTKATLTVDKSSSTAYMQLSSLTSEDSAVYYCARYSTGFAYWGQGTLVTVSA
VL: DIVLTQTTASLAVSLGQRATISCRASESVDTYGASFMHWYQQKPGQPPKLLIYRASNLESGIPARFSGSGSRTDFTLTVNPVEADDVATYYCQQSNEDPRTFGGGTKLEIK
notes: as for B1
B15: 1J3 (antibody, V domains shown)
VH: QVQLEQSGGDLVKPGGSLKLSCAASGFTFSSYGMSWVRQTPDKRLEWVATISSYGSYTSYPDTVKGRFTISRDNAKNTLYLQMSSLKSEDTAMYYCARPDYYVSTGFDYWGQGTTLTVSS
VL: DIVITQSTATLSVTPGDRVSLSCRASQSISDYLHWYQQKSHESPRLLIKYASQSISGIPSRFSGSGSGSDFTLSINSVEPEDVGVYYCQNGHSFPFTFGSGTKLEIK
notes: as for B1

What was measured:
[1] = molecular target: T1, Recombinant hIL-36R protein (Acrobio, …); assay: BLI (Gator), antibody on Protein A sensor, hIL-36R analyte; stands under the head kon(1/s), read as koff from KD = koff/kon
Method: (§1) Antibodies was immobilized onto Protein A biosensor after balance. A baseline was detected for 60 seconds. And then antibody-antigen association was detected for 180 seconds to get the Kon factor data. Followed by dissociation in kinetic buffer for 180 seconds to get the Koff factor data. The regeneration of biosensors was in buffer 10 mM glycine, pH2.0. All the kinetics data were collected at 30° C. Data were acquired with Gator Bioanalysis System.

[2] = molecular target: T1, Recombinant hIL-36R protein (Acrobio, …); assay: BLI (Gator), antibody on Protein A sensor, hIL-36R analyte; stands under the head koff(1/Ms), read as kon from KD = koff/kon
Method: as §1

[3] = molecular target: T1, Recombinant hIL-36R protein (Acrobio, …); assay: BLI (Gator), antibody on Protein A sensor, hIL-36R analyte
Method: as §1

[4] = molecular target: T1, Recombinant hIL-36R protein (Acrobio, …); assay: BLI as in Example 2, antibody on Protein A sensor, hIL-36R analyte
Method: as §1

[5] = molecular target: T2, membrane hIL-36R; assay: cell-based or functional assay
[6] = molecular target: T1, Recombinant hIL-36R protein (Acrobio, …); assay: BLI (Gator)
Method: as §1

[7] = molecular target: T2, membrane hIL-36R; assay: cell-based or functional assay; remark: listed apart in the source

Row | Binder | koff [1] [s⁻¹] | kon [2] [M⁻¹ s⁻¹] | Kd [3] [nM] | Kd [6] [nM] | kon [6] [M⁻¹ s⁻¹] | other results
1 | B1 | 5.79e-07 | 91700 | 0.00631 |  |  | 
2 | B2 | 0.000321 | 79800 | 4.03 |  |  | 
3 | B3 | 0.000795 | 79400 | 10 |  |  | 
4 | B4 |  |  |  |  |  | Kd [4]: 6.86 nM; koff [4]: 0.000233 s⁻¹; kon [4]: 34000 M⁻¹ s⁻¹; IC50, IL-36R reporter assay: inhibition of ligand induced luminescence in Jurkat-IL36R-IL1Racp-NFkB-luc cells [5]: 0.086 µg/mL
5 | B5 | 0.000137 | 152000 | 0.901 |  |  | 
6 | B6 | 4.01e-05 | 74900 | 0.536 |  |  | 
7 | B7 |  |  |  | < 0.1 | 39800 | IC50, IL-36R reporter assay: inhibition of ligand induced luminescence in Jurkat-IL36R-IL1Racp-NFkB-luc cells [7]: 0.0228 µg/mL
8 | B8 |  |  |  | 0.638 | 28900 | koff [6]: 1.84e-05 s⁻¹
9 | B9 |  |  |  | < 0.1 | 32500 | IC50, IL-36R reporter assay: inhibition of ligand induced luminescence in Jurkat-IL36R-IL1Racp-NFkB-luc cells [7]: 0.0195 µg/mL
10 | B10 |  |  |  | 2060 | 203 | koff [6]: 0.000418 s⁻¹
11 | B11 |  |  |  | 2.46 | 35900 | koff [6]: 8.83e-05 s⁻¹
12 | B12 |  |  |  |  |  | Kd [4]: 6.28 nM; koff [4]: 0.000294 s⁻¹; kon [4]: 46700 M⁻¹ s⁻¹; IC50, IL-36R reporter assay: inhibition of ligand induced luminescence in Jurkat-IL36R-IL1Racp-NFkB-luc cells [5]: 0.0781 µg/mL
13 | B13 |  |  |  | < 0.1 | 41000 | 
14 | B14 | 0.000872 | 63800 | 13.7 |  |  | 
15 | B15 | 4.37e-05 | 73200 | 0.597 |  |  | 
